According to US20220048996A1 (F STAR BETA, published 2022):

Experiments:
[1] = target: T1, human OX40 expressed on DO11.10 cells (DO11.10-hOX40) (human, UniProt P43489 29-277); experiment: cell-based or functional assay
T1 sequence: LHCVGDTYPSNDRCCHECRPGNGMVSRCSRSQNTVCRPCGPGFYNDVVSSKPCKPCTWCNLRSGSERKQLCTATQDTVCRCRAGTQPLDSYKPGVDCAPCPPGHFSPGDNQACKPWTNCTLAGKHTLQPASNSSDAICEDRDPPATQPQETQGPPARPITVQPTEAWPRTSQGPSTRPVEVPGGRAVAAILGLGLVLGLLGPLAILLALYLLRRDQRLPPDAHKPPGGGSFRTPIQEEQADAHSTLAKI

[2] = target: human CD137 expressed on DO11.10 cells (DO11.10-hCD137) (human, UniProt Q07011 24-255); experiment: cell-based or functional assay
hOX40-mFc = target: T2, hOX40-mFc (human); experiment: SPR, antibody captured via anti-human Fab, dimeric antigen flowed, 1:1 fit
T2 construct: Dimeric; also called human OX40-mFc
T2 chain: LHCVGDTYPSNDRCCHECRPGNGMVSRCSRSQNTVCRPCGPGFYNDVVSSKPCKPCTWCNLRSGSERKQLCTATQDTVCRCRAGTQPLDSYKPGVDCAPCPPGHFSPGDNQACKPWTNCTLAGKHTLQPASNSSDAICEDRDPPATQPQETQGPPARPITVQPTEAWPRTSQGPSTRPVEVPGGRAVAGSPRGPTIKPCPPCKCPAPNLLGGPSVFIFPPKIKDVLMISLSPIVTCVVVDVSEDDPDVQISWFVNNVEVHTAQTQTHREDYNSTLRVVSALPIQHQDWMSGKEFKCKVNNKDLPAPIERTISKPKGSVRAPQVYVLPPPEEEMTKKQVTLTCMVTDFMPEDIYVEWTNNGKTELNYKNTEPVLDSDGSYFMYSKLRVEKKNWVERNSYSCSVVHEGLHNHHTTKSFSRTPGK
Protocol: (§1) For OX40 affinity determination a Biacore CM5 chip was coated with anti-human Fab using a Human Fab Capture Kit (GE Healthcare 28958325) according to manufacturer's conditions, to a surface density of approximately 8000 RU. […] The association time was 2 min and the dissociation time was 8 min. Running buffer was HBS-EP. Flow cells were regenerated by injecting glycine-HCl at pH 2.1 at a flow rate of 30 μl/min for 30 seconds.
(§2) The binding kinetics were fit with a 1:1 Langmuir model to generate binding association (kₐ) and dissociation (kd) rates. Equilibrium binding constants (KD) were calculated by dividing the dissociation rate by the association rate for each sample. Data analysis was performed with BiaEvaluation software version 3.2.

cOX40-mFc = target: T3, cOX40-mFc (cynomolgus); experiment: as above
T3 construct: Dimeric; also called cyno OX40-mFc
T3 chain: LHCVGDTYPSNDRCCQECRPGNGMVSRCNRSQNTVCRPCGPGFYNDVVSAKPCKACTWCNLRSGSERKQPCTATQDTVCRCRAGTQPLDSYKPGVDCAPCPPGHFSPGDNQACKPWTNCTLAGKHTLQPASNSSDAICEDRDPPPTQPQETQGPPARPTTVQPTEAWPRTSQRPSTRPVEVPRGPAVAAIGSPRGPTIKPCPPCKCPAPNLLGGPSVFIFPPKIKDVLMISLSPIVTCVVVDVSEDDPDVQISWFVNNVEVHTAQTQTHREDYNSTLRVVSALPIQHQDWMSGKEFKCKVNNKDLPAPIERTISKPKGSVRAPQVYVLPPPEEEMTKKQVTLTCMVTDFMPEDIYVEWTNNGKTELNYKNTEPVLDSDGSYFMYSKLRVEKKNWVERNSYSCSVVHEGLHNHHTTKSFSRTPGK
Protocol: as §1, §2

Sequence of human CD137 expressed on DO11.10 cells (DO11.10-hCD137) (Q07011 24-255): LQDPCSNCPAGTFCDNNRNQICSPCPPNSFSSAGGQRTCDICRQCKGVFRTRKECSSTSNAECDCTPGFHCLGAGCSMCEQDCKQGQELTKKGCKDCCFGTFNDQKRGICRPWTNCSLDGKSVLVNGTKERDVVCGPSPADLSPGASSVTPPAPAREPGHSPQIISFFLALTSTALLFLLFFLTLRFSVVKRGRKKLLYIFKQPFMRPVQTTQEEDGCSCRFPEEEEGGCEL

- CD4+ T cell activation assay, hIL-2 release EC50, crosslinked [1]: 83.3 pM
- CD4+ T cell activation assay, hIL-2 release EC50, no crosslinker [1]: 113 pM
- CD8+ T cell activation assay, hIL-2 release EC50, crosslinked [2]: 1980 pM
- CD8+ T cell activation assay, hIL-2 release EC50, no crosslinker [2]: 118 pM
- Kd (hOX40-mFc): 214 pM
- Kd (cOX40-mFc): 861 pM
B1: FS20-22-49AA/FS30-10-16 (bispecific antibody, human IgG1, kappa, L234A L235A)
heavy: EVQLLESGGGLVQPGGSLRLSCAASGFTFSSYDMSWVRQAPGKGLEWVSDIDPTGSKTDYADSVKGRFTISRDNSKNTLYLQMNSLRAEDTAVYYCARDLLVYGFDYWGQGTLVTVSSASTKGPSVFPLAPSSKSTSGGTAALGCLVKDYFPEPVTVSWNSGALTSGVHTFPAVLQSSGLYSLSSVVTVPSSSLGTQTYICNVNHKPSNTKVDKKVEPKSCDKTHTCPPCPAPEAAGGPSVFLFPPKPKDTLMISRTPEVTCVVVDVSHEDPEVKFNWYVDGVEVHNAKTKPREEQYNSTYRVVSVLTVLHQDWLNGKEYKCKVSNKALPAPIEKTISKAKGQPREPQVYTLPPSRDEYWDQEVSLTCLVKGFYPSDIAVEWESNGDEQFAYKTTPPVLDSDGSFFLYSKLTVDQYRWNPADYFSCSVMHEALHNHYTQKSLSLSPG
light: EIVLTQSPGTLSLSPGERATLSCRASQSVSSSYLAWYQQKPGQAPRLLIYGASSRATGIPDRFSGSGSGTDFTLTISRLEPEDFAVYYCQQSYSYPVTFGQGTKVEIKRTVAAPSVFIFPPSDEQLKSGTASVVCLLNNFYPREAKVQWKVDNALQSGNSQESVTEQDSKDSTYSLSSTLTLSKADYEKHKVYACEVTHQGLSSPVTKSFNRGEC
notes: IgG1 with LALA; also called OX40/CD137 mAb^2; copies: 2 + 2
